Target: the molecule itself
Test: non-reducing SDS-PAGE of whole cell extracts of transfected HEK293T cells

B1: CPG15-2 (other)
chain: SEGPNRCDTIYQGFAECLIRLGDGMGRGGELQTVCRSWNDFHACASRVLSGCPEEAAAVWESLQQEARRAPHPDNLHILCGAPVSVRERIAGPETNQETLRATA
notes: also called mouse CPG15-2
B1: binds.

Reference: patent publication US20050187175A1 (published 2005)
